According to US20070141625A1 (published 2007):

Target: T1, protein C (PC) (UniProt P04070 43-461)
T1 construct: Commercial PC
Assay: inhibition by rhsEPCR 2 µM of PC activation by thrombin on EA.hy926 endothelial cells; Ki derived from the shift of Km
Experimental: Proc Natl Acad Sci USA. 1996; 93:10212-6). 5×10⁴ cells/well were incubated in a 96-well plate with 0.02 U/ml of thrombin (0.17 nM) (ERL, Swansea, United Kingdom) and growing concentrations of PC (Baxter, Deerfield, Ill., USA) between 50 and 1000 nM in Tris 20 mM buffer, pH 7.4, supplemented with NaCl 150 mM, CaCl₂ 5 mM, MgCl₂ 0.6 mM, 1% BSA, 0.001% Tween-20 and 0.02% NaN₃. After 45 minutes at room temperature, lepirudin was added (Schering A G, Berlin, Germany) at an end concentration of 0.2 μmol/L, to inhibit thrombin; 3-4 minutes later, chromogenic substrate S-2366 was added (Chromogenix, Milan, Italy) at an end concentration of 0.4 mM with the purpose of monitoring its proteolysis by APC. The increase in absorbance at 405 nm was recorded kinetically with a microplate reader (iEMS REader, Labsystems, Finland). Curve data fitting to the Michaelis-Menten equation was carried out using the Enzfitter program (Biosoft, Cambridge, United Kingdom), which calculated the Km of PC activation under those conditions. Where necessary, 45 μg/ml of purified anti-EPCR autoantibodies from patients (see below) were added simultaneously with the thrombin and PC. Thus, the effect of the anti-EPCR autoantibodies upon PC activation could be analyzed. […]

T1 sequence (P04070 43-461): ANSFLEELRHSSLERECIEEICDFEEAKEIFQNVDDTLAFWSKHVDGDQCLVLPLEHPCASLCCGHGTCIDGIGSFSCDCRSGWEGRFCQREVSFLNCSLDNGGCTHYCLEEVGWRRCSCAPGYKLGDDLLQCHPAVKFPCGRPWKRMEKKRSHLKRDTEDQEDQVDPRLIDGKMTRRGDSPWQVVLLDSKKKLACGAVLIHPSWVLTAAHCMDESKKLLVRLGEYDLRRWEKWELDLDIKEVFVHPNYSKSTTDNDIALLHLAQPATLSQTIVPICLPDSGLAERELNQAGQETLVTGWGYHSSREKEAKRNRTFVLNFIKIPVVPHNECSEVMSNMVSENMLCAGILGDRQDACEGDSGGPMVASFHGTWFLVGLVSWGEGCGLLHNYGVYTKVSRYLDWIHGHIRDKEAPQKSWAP

Ki: ~70 nM
B1: recombinant human soluble EPCR (rhsEPCR) (receptor)
chain: SISQDASDGLQRLHMLQISYFRDPYHVWYQGNASLGGHLTHVLEGPDTNTTIIQLQPLQEPESWARTQSGLQSYLLQFHGLVRLVHQERTLAFPLTIRCFLGCELPPEGSRAHVFFEVAVNGSSFVSFRPERALWQADTQVTSGVVTFTLQQLNAYNRTRYELREFLEDTCVQYVQKHISAENTKGSQTSRSYTSAAASFLEQKLISEEDLNSAVDHHHHHH
notes: also called recombinant sEPCR; human recombinant EPCR in soluble form
